Assay results reported in US20210155703A1 (Bristol-Myers Squibb, published 2021).
Each block holds one binder with its values, some of them ahead of it.

What was measured:
[1] = biological target: T1, human CD27 on human T cells (human, UniProt P26842 21-260); experiment: flow cytometry on human T cells pretreated with 10 µg/ml human CD70; bound antibody detected with labelled anti-human IgG
T1 construct: Native CD27 on primary human T cells; also called hCD27
T1 sequence: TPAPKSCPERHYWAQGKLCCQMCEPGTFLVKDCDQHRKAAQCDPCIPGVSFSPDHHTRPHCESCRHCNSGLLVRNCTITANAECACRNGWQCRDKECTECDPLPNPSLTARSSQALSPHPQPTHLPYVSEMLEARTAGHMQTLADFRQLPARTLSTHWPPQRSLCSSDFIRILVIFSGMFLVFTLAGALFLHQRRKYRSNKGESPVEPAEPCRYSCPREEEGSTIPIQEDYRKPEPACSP

[2] = biological target: T1, human CD27 on human T cells; experiment: cell-based or functional assay
[3] = biological target: T2, cynomolgus CD27 on cynomolgus T cells (cynomolgus monkey); experiment: flow cytometry on cynomolgus T cells, FIG. 1B
T2 construct: whole, on cells; also called cCD27

[4] = biological target: T3, human CD27 (hCD27), form in the assay not stated (human, UniProt P26842 20-260, limits assumed); experiment: Scatchard analysis; format not stated; Scatchard analysis, not SPR; antibody, format not stated
T3 construct: Whole entry named
T3 sequence: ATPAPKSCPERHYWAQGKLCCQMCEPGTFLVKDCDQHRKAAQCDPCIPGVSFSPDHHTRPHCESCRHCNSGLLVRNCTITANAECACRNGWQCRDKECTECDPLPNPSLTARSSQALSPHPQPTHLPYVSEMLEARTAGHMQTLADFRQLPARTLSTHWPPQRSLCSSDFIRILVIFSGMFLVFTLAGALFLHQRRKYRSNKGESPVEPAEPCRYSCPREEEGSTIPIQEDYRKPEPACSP

[5] = biological target: T2, cynomolgus CD27 on cynomolgus T cells; experiment: estimated in vivo serum EC50 for 50% CD27 receptor occupancy in monkey whole blood, Emax model
Source text: Criteria for evaluation included clinical observations, hematology, PK, CD27 receptor occupancy (RO), circulating sCD27 levels, lymphocyte subset analysis, cytokine levels, and ADA determination. Blood samples were obtained prior to dosing and at various intervals up to 42 days post-dose. Overall, there were no adverse findings, including no adverse clinical observations and no changes in hematologic parameters. There were time- and dose-dependent increases in circulating sCD27 levels. […] There were no significant changes in circulating lymphocyte subsets including CD4⁺, Treg (Foxp3⁺/CD4⁺), CD8⁺ T, CD20⁺ B, and NK cells, or circulating cytokine levels.

[6] = biological target: T1, human CD27 on human T cells; experiment: flow cytometry on human T cells, n=5; lowest of the n=5 determinations
[7] = biological target: T1, human CD27 on human T cells; experiment: flow cytometry on human T cells, FIG. 1A
[8] = biological target: T2, cynomolgus CD27 on cynomolgus T cells; experiment: binding to cynomolgus T cells
[9] = biological target: T1, human CD27 on human T cells; experiment: flow cytometry on human T cells, n=5; mean of n=5
[10] = biological target: T1, human CD27 on human T cells; experiment: flow cytometry on human T cells, n=5; highest of the n=5 determinations
[11] = biological target: T4, hCD27-mouseFc or hCD27-Histag proteins (human, UniProt P26842 20-191); experiment: SPR at 25 C, Fab with hCD27-mouseFc or hCD27-Histag, 1:1 fit binding model; 25 C; lower end of the measured values
T4 construct: not shown: mouse Fc or His tag
T4 sequence: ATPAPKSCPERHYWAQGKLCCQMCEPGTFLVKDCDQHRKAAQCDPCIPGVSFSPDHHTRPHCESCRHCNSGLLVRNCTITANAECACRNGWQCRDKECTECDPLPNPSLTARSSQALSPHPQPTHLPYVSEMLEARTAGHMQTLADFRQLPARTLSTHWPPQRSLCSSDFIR
Experimental: (§1) The measured values were 41-44 nM at 37° C. and 13-16 nM at 25° C. […] The kinetic analysis used a 1:1 fit binding model.

[12] = biological target: T4, hCD27-mouseFc or hCD27-Histag proteins; experiment: SPR; due to an increased dissociation rate, association rate unchanged
Experimental: as §1

[13] = biological target: T4, hCD27-mouseFc or hCD27-Histag proteins; experiment: SPR at 37 C, Fab with hCD27-mouseFc or hCD27-Histag, 1:1 fit binding model; 37 C; lower end of the measured values
Experimental: as §1

[14] = biological target: T1, human CD27 on human T cells; experiment: blocking assay by flow cytometry: human T cells with antibody in the presence of 10 µg/ml soluble human CD70; blocked ligand CD70 detected with labelled anti-CD70
Source text: Binding of the Abs in the assay was detected by a labeled anti-human IgG Ab (*, ahIgG). […] Binding of the ligand blocking 1F5 Ab was not detected. […] CD70 was detected by a labeled anti-CD70 Ab (*, aCD70). […] Binding of CD70 decreased with increasing concentrations of the ligand blocking 1F5 Ab. “MFI,” “hIgG1,” and “FL2” are as described for FIG. 1. “FL1” in (B) indicates measurement in fluorescence channel 1 (FL1).
The presence or absence of binding of the Abs was detected using a labeled anti-human IgG Ab. […] See FIG. 2A, showing a schematic of the assay, and FIG. 2B, showing a graph of the results. Binding of the ligand blocking 1F5 Ab was not detected. Id. […] CD70 was detected by a labeled anti-CD70 Ab.

EC50 (read off the curve) [1]: ~100 pM | IFN-γ production of CD4+CD45RO+ memory T cells, CHO-svCD3-CD32a co-culture (EC50) [2]: 15 pM | IFN-γ secretion in FIG. 6(B), CHO-svCD3-CD32a co-culture (EC50) [2]: 6.24 pM | IFN-γ secretion, CHO-svCD3-CD32a co-culture (mean EC50) [2]: 7.8 pM | IL-2 release from SEB-stimulated PBMCs, with PD-1 blockade against without [2]: 2 fold | T cell proliferation in FIG. 6(A), CHO-svCD3-CD32a co-culture (EC50) [2]: 4.5 pM | T cell proliferation, CHO-svCD3-CD32a co-culture (mean EC50) [2]: 9 pM | induction of IFN-γ secretion from CD4+CD25- T cells co-cultured with B cells, 100 ng/ml SEB, antibody at 10 µg/ml [2]: > 2.5 fold | proliferation of CD4+CD45RO+ memory T cells, CHO-svCD3-CD32a co-culture (EC50) [2]: 5 pM | EC50 [3]: 92 pM | Kd [4]: 45 pM | EC50 [5]: 80 pM | EC50 [6]: 22 to 76 pM | EC50 [7]: 22.1 pM | EC50 [8]: ~5 ng/mL | EC50 [9]: 44 pM | EC50 [10]: 22 to 76 pM
B1: HuMAb BMS-986215 (human IgG1 anti-human CD27 monoclonal antibody) (antibody, V domains shown)
VH: QVQLVQSGSEVKKPGASVKVSCKASGYTFTTYAMNWVRQAPGQGLEWMGWINTNTGNPTYAQGFTGRFVFSLDTSVNTAYLQISSLKAEDTAVYYCARDFGGFDYWGQGTLVTVSS
VL: AIQLTQSPSSLSASVGDRVTITCRASQGISSALAWYQQKPGKAPKLLINDASSLESGVPSRFSGSGSGTDFTLTISSLQPEDFATYYCQQFNNYPRTFGQGTKVEIKR
modifications: N-terminal glutamine to pyroglutamate; N-glycan at N297 (Table 4)
notes: Full-length human IgG1 produced in CHO cells; derived from clone 16D9

Kd [11]: 13000 to 16000 pM | fold loss of affinity from 25° C. to 37° C. [12]: 3 fold | Kd [13]: 41000 to 44000 pM
B2: Fab fragment of BMS-986215 (Fab, V domains shown)
VH: B1 VH
VL: AIQLTQSPSSLSASVGDRVTITCRASQGISSALAWYQQKPGKAPKLLINDASSLESGVPSRFSGSGSGTDFTLTISSLQPEDFATYYCQQFNNYPRTFGQGTKVEIK

IFN-γ production of CD4+CD45RO+ memory T cells, CHO-svCD3-CD32a co-culture (EC50) [2]: 89 pM | IFN-γ secretion in FIG. 6(B), CHO-svCD3-CD32a co-culture (EC50) [2]: 40.2 pM | T cell proliferation in FIG. 6(A), CHO-svCD3-CD32a co-culture (EC50) [2]: 35.7 pM | proliferation of CD4+CD45RO+ memory T cells, CHO-svCD3-CD32a co-culture (EC50) [2]: 73 pM | EC50 [3]: 1800 pM | IC50 (read off the curve) [14]: ~1000 pM | EC50 [7]: 1090 pM
B3: Reference HuMAb 1F5 (human anti-hCD27 mAb, ligand blocking) (antibody, human IgG1, kappa, V domains shown)
VH: QVQLVESGGGVVQPGRSLRLSCAASGFTFSSYDMHWVRQAPGKGLEWVAVIWYDGSNKYYADSVKGRFTISRDNSKNTLYLQMNSLRAEDTAVYYCARGSGNWGFFDYWGQGTLVTVSS
VL: DIQMTQSPSSLSASVGDRVTITCRASQGISRWLAWYQQKPEKAPKSLIYAASSLQSGVPSRFSGSGSGTDFTLTISSLQPEDFATYYCQQYNTYPRTFGQGTKVEIKR
notes: also called 1F5-IgG1
